The term koff denotes the rate constant with which the complex falls apart. What is called kon is the rate constant with which the complex forms. By EC50 is commonly meant the concentration that produces a half-maximal response.

Holding throughout (conditions): remark: other sources report otherwise
Assay [1] deals with T1, recombinant Spike protein (Sino Biologicals Cat #40589-V08B1) (SARS-CoV-2), P0DTC2. Nature of the assay: BLI (Octet), His-tagged S on Ni-NTA sensor, avidity.
Assay [2] concerns the target recombinant SARS-CoV-2 Receptor Binding Domain (RBD) with a his tag (ATUM, Cat. 65639.1.a) (SARS-CoV-2), P0DTC2. Nature of the assay: ELISA on coated RBD-his. (In an ELISA, binding on a coated surface is turned into a signal by an enzyme label.)
Assay [3] addresses T1, recombinant Spike protein (Sino …). Nature of the assay: ELISA on coated recombinant spike.
Assay [4] has as its target T2, wild type RBD protein (generated as in Ku et al. 2021) (SARS-CoV-2), P0DTC2. Nature of the assay: BLI competition, RBD on sensor, antibody then ACE2; competitor ACE2.
Assay [5] addresses T2, wild type RBD protein (generated as in …). Nature of the assay: binding KD on RBD protein, generally as Example 4.

B1: anti-SARS-CoV2-14 IgG (lambda-VL-kappa-CL hybrid light chain) (antibody, V domains shown)
VH: EVQLQQSGPGLVKPSQTLSLTCAISGDSVSSNSAAWNWIRQSPSRGLEWLGRTYYRSKWYNDYAVSVKSRITINPDTSKNQFSLQLNSVTPEDTAVYYCAREEQQLVHDYYYYGMDVWGQGTMVTVSS
VL: QAVVTQPASVSGSPGQSITISCTGTSSDIGAYNYISWYQQHPGKAPKLIIYEVSNRPSGISYRFSGSKSGNTASLTISGLQAEDEANYYCSSYAGSISFGGGTKVTVL
Take B1: in assay [1], the Kd was determined as 1.39 nM, the koff stood at 0.0013 s⁻¹ and the kon amounted to 933000 M⁻¹ s⁻¹. Also, the EC50 in assay [2] was over 60 nM. In assay [3], the 50% effective concentration (EC50) amounted to 6.22 nM.

B2: anti-SARS-CoV2-14 IgG (full lambda light chain) (antibody, V domains shown)
VH: EVQLQQSGPGLVKPSQTLSLTCAISGDSVSSNSAAWNWIRQSPSRGLEWLGRTYYRSKWYNDYAVSVKSRITINPDTSKNQFSLQLNSVTPEDTAVYYCAREEQQLVHDYYYYGMDVWGQGTMVTVSS
VL: QAVVTQPASVSGSPGQSITISCTGTSSDIGAYNYISWYQQHPGKAPKLIIYEVSNRPSGISYRFSGSKSGNTASLTISGLQAEDEANYYCSSYAGSISFGGGTKVTVL
As for B2, in assay [4], the 50% effective concentration (EC50) stood at 18.6 nM. Further, the Kd in assay [5] is 0.82 nM.

Source of the values: US20220267415A1.
